Laboratory results from publication PMC6826516 (2019).

B1: SmBiT-TAZ-Flag (TAZ aa 13-119), wild type [not stated] / LgBiT-TEAD1-Myc (TEAD1 aa 194-411), wild type [not stated] (parent complex)
chain 1: PGQQVIHVTQDLDTDLEALFNSVMNPKPSSWRKKILPESFFKEPDSGSHSRQSSTDSSGGHPGPRLAGGAQHVRSHSSPASLQLGTGAGAAGSPAQQHAHLRQQSYD
chain 2: RSIGTTKLRLVEFSAFLEQQRDPDSYNKHLFVHIGHANHSYSDPLLESVDIRQIYDKFPEKKGGLKELFGKGPQNAFFLVKFWADLNCNIQDDAGAFYGVTSQYESSENMTVTCSTKVCSFGKQVVEKVETEYARFENGRFVYRINRSPMCEYMINFIHKLKHLPEKYMMNSVLENFTILLVVTNRDTQETLLCMACVFEVSNSEHGAQHHIYRLVKD

Variants of: B1
Test: NanoBiT assay (split-luciferase biosensor) in lysates of transfected HEK293T cells; 48 h after transfection; equal amounts of each biosensor plasmid; read off a plot
For chain 1 W31A, chain 1 K34A, chain 1 L36A, chain 1 S39A, chain 1 F40A, chain 1 F41A, the response was ~430 fold over LgBiT-TEAD1 alone.
